The source of these data is PMC9986279, “Biochemical and genetic examination of two aminotransferases from the hyperthermophilic archaeon Thermococcus kodakarensis” (Frontiers in Microbiology, 2023).

The target in data set [1] is T1, TK0548 protein (Thermococcus kodakarensis, UniProt Q5JF51).
T1 construct: full length, no tag (own stop codon in primer), pET21a(+), E. coli BL21-CodonPlus(DE3)-RIL; monomer 43,608 Da, dimer (85 kDa)
T1 sequence (Q5JF51 1-389): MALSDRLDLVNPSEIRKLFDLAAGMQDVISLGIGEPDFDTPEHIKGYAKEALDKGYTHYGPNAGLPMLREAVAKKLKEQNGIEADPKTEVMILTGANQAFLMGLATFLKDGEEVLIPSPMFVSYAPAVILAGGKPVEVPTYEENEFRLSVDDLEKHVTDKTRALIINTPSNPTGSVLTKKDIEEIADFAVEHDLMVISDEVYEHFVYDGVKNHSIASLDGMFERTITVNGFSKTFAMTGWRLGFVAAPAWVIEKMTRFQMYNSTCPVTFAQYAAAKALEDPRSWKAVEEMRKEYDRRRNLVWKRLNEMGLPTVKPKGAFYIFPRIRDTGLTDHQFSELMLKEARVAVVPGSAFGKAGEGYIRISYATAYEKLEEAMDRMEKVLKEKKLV
Put plainly: aminotransferase activity with and without added PLP. Format: biochemical. The note with it: 20 μM PLP, 50 mM HEPES pH 7.4, 80°C.

Data set [2] concerns the target T2, TK2268 protein (Thermococcus kodakarensis, UniProt Q5JHU0).
T2 construct: full length, C-terminal His6-tag kept, expressed in T. kodakarensis KPD2; monomer 45,116 Da; dimer (98 kDa) that may assemble to octamer (327 kDa)
The description is as above. Format: biochemical. The note with it: 20 μM PLP, 50 mM HEPES pH 7.4, 80°C.

Substrate in data set [3]: N[C@@H](CCC(=O)O)C(=O)O
Kind of data set: aminotransferase assay, Ala formed quantified by HPLC after o-phthalaldehyde derivatization. Format: biochemical, Thermococcus kodakarensis. The note with it: 10 mM pyruvate, 20 μM PLP, 50 mM HEPES pH 7.4, 80°C. From the text: (§1) aminotransferase assay, Ala formed quantified by HPLC after o-phthalaldehyde derivatization on TK2268 protein

Substrate in data set [4]: CC(=O)C(=O)O
The data set is described as above. The format is biochemical, Thermococcus kodakarensis. The note with it: 50 mM Leu, 20 μM PLP, 50 mM HEPES pH 7.4, 80°C.
Description: as §1

Substrate in data set [5]: CC(C)C[C@H](N)C(=O)O
Described as above. The format is biochemical, Thermococcus kodakarensis. The note with it: 10 mM pyruvate, 20 μM PLP, 50 mM HEPES pH 7.4, 80°C.
Description: as §1

Substrate in data set [6]: N[C@@H](CC(=O)O)C(=O)O
Kind of data set: purified protein. The note with it: 10 mM pyruvate, 20 μM PLP, 50 mM HEPES pH 7.4, 80°C.

Substrate in data set [7]: N[C@@H](Cc1ccc(O)cc1)C(=O)O
Kind of data set: aminotransferase assay, Glu formed quantified by HPLC after o-phthalaldehyde derivatization. The format is biochemical, Thermococcus kodakarensis. The note with it: 10 mM 2-oxoglutarate, 20 μM PLP, 50 mM HEPES pH 7.4, 80°C. From the text:
(§2) aminotransferase assay, Glu formed quantified by HPLC after o-phthalaldehyde derivatization on TK2268 protein

Substrate in data set [8]: O=C(O)CCC(=O)C(=O)O
The data set is described as above. The format is biochemical, Thermococcus kodakarensis. The note with it: 50 mM Leu, 20 μM PLP, 50 mM HEPES pH 7.4, 80°C.
Description: as §2

Substrate in data set [9]: CC(=O)C(=O)O
Kind of data set: aminotransferase assay, Ala formed quantified by HPLC after o-phthalaldehyde derivatization. The format is biochemical, Thermococcus kodakarensis. The note with it: 10 mM Phe, 20 μM PLP, 50 mM HEPES pH 7.4, 80°C. The text has this: aminotransferase assay, Ala formed quantified by HPLC after o-phthalaldehyde derivatization on TK0548 protein

Substrate in data set [10]: N[C@@H](Cc1c[nH]c2ccccc12)C(=O)O
Put plainly: aminotransferase assay, Glu formed quantified by HPLC after o-phthalaldehyde derivatization. Format: biochemical, Thermococcus kodakarensis. The note with it: 10 mM 2-oxoglutarate, 20 μM PLP, 50 mM HEPES pH 7.4, 80°C. The text has this:
(§3) aminotransferase assay, Glu formed quantified by HPLC after o-phthalaldehyde derivatization on TK0548 protein

Substrate in data set [11]: CSCC[C@H](N)C(=O)O
Described as above. The format is biochemical, Thermococcus kodakarensis. The note with it: 10 mM 2-oxoglutarate, 20 μM PLP, 50 mM HEPES pH 7.4, 80°C.
Description: as §3

Substrate in data set [12]: N[C@@H](Cc1ccccc1)C(=O)O
The description is as above. Format: biochemical, Thermococcus kodakarensis. The note with it: 10 mM 2-oxoglutarate, 20 μM PLP, 50 mM HEPES pH 7.4, 80°C.
Description: as §3

Substrate in data set [13]: N[C@@H](Cc1c[nH]cn1)C(=O)O
The data set is described as above. Format: biochemical, Thermococcus kodakarensis. The note with it: 10 mM 2-oxoglutarate, 20 μM PLP, 50 mM HEPES pH 7.4, 80°C.
Description: as §3

Substrate in data set [14]: N[C@@H](Cc1ccc(O)cc1)C(=O)O
The description is as above. The format is biochemical, Thermococcus kodakarensis. The note with it: 10 mM 2-oxoglutarate, 20 μM PLP, 50 mM HEPES pH 7.4, 80°C.
Description: as §3
The source holds these as a separate data set.

Substrate in data set [15]: O=C(O)CCC(=O)C(=O)O
The description is as above. The format is biochemical, Thermococcus kodakarensis. The note with it: 10 mM Phe, 20 μM PLP, 50 mM HEPES pH 7.4, 80°C.
Description: as §3

Consider `Cc1ncc(COP(=O)(O)O)c(C=O)c1O` [pyridoxal 5′-phosphate], for which the “aminotransferase activity with and without added PLP” value is “suggesting that the TK0548 and TK2268 proteins are PLP-dependent aminotransferases” in data set [1]; “suggesting that the TK0548 and TK2268 proteins are PLP-dependent aminotransferases” in data set [2].

B1: TK2268 protein (Thermococcus kodakarensis KOD1) (protein)
chain: MRYKKRKYFMAGRINILQRSKIRELFEKASKMENVISLGIGEPDFDTPEVIKEAAKRAIDEGYTHYTPNAGIPEFREAIAEYYKEFYNVDVDMNNIIVTAGAYEATYLAFESILEQGDDVIIPDPAFVCYVEDAKIAEAGIIRIPLREENKFRIDPDELLEAITKRTRMIVMNYPNNPTGAIMKKDVAKAIADIAQDYNIYILSDEPYEHFLYEGARHHPMIKYAPDNTILANSFSKTFAMTGWRLGFAIAPEQVIRDMIKLHAYVIGNVTSFIQIAGITALRDKRSWEAVERMRQVYDERRKLVLKYLNDMPHITPFRPKGAFYIWAKIDPELDMTSEDFAEWLLENAGVVVIPGTAFGRQGEGWIRISYATEKEKLIEAMERMKEALSKL
notes: full length, C-terminal His6-tag kept, expressed in T. kodakarensis KPD2; monomer 45,116 Da; dimer (98 kDa) that may assemble to octamer (327 kDa)
In the case of B1, the Km (in general, the concentration of substrate that gives half-maximal velocity) worked out at 2170 ± 270 µM in data set [3]; 2720 ± 350 µM in data set [4]; 36300 ± 4300 µM in [5]; 2140 ± 220 µM in data set [6]; 1450 ± 260 µM in [7]; 190 ± 30 µM in data set [8]. For the same molecule, the Vmax (as a rule, the top rate of the reaction or transport when substrate is in excess) in data set [3] turned out to be 7.42 µmol/min/mg; in data set [4], 3.76 µmol/min/mg; in data set [5] it was 4.68 µmol/min/mg; in data set [6] it was 5.42 µmol/min/mg; in [7], 0.34 µmol/min/mg; in data set [8], 4.45 µmol/min/mg. Further, the kcat (in general, the number of substrate molecules converted per active site and unit of time at saturation) is 5.57 ± 0.23 s⁻¹ in data set [3]; 2.83 ± 0.16 s⁻¹ in data set [4]; 3.52 ± 0.23 s⁻¹ in data set [5]; 4.07 s⁻¹ in data set [6]; 0.26 ± 0.02 s⁻¹ in data set [7]; 3.35 ± 0.15 s⁻¹ in data set [8]. Besides, the specificity constant (kcat/Km) (as a rule, the second-order rate constant that governs catalysis at low substrate concentration) turned out to be 2570 M⁻¹ s⁻¹ in [3]; 1040 M⁻¹ s⁻¹ in [4]; 100 M⁻¹ s⁻¹ in data set [5]; 1900 M⁻¹ s⁻¹ in data set [6]; 180 M⁻¹ s⁻¹ in data set [7]; 17600 M⁻¹ s⁻¹ in data set [8].

B2: TK0548 protein (Thermococcus kodakarensis KOD1) (protein)
chain: MALSDRLDLVNPSEIRKLFDLAAGMQDVISLGIGEPDFDTPEHIKGYAKEALDKGYTHYGPNAGLPMLREAVAKKLKEQNGIEADPKTEVMILTGANQAFLMGLATFLKDGEEVLIPSPMFVSYAPAVILAGGKPVEVPTYEENEFRLSVDDLEKHVTDKTRALIINTPSNPTGSVLTKKDIEEIADFAVEHDLMVISDEVYEHFVYDGVKNHSIASLDGMFERTITVNGFSKTFAMTGWRLGFVAAPAWVIEKMTRFQMYNSTCPVTFAQYAAAKALEDPRSWKAVEEMRKEYDRRRNLVWKRLNEMGLPTVKPKGAFYIFPRIRDTGLTDHQFSELMLKEARVAVVPGSAFGKAGEGYIRISYATAYEKLEEAMDRMEKVLKEKKLV
notes: full length, no tag (own stop codon in primer), pET21a(+), E. coli BL21-CodonPlus(DE3)-RIL; monomer 43,608 Da, dimer (85 kDa)
With B2, the Michaelis constant (Km) was found to be 48000 ± 5000 µM in [9]; 1100 ± 100 µM in data set [10]; 64000 ± 9000 µM in data set [11]; 670 ± 60 µM in data set [12]; 4400 ± 400 µM in data set [13]; 1400 ± 200 µM in data set [14]. Besides, the Km in [15] was 1500 ± 200 µM. Besides, the Vmax in data set [9] turned out to be 137 µmol/min/mg; in [10] it was 359 µmol/min/mg; in [11], 169 µmol/min/mg; in data set [12], 483 µmol/min/mg; in data set [13] it was 179 µmol/min/mg; in data set [14], 419 µmol/min/mg. For the same molecule, the maximal velocity (Vmax) in data set [15] was found to be 334 µmol/min/mg. Further, the turnover number (kcat) was 100 ± 7 s⁻¹ in data set [9]; 261 ± 10 s⁻¹ in data set [10]; 123 ± 14 s⁻¹ in data set [11]; 351 ± 10 s⁻¹ in [12]; 130 ± 6 s⁻¹ in [13]; 305 ± 19 s⁻¹ in data set [14]. Moreover, the kcat in [15] was 243 ± 10 s⁻¹. Also, the kcat/Km amounted to 2070 M⁻¹ s⁻¹ in data set [9]; 237000 M⁻¹ s⁻¹ in [10]; 1920 M⁻¹ s⁻¹ in data set [11]; 524000 M⁻¹ s⁻¹ in [12]; 29600 M⁻¹ s⁻¹ in data set [13]; 218000 M⁻¹ s⁻¹ in data set [14]. In addition, in data set [15], the kcat/Km was determined as 162000 M⁻¹ s⁻¹.
